In publication doi:10.1101/2021.04.30.442189:

Target: T1, TRF2 (human), Q15554
T1 chain: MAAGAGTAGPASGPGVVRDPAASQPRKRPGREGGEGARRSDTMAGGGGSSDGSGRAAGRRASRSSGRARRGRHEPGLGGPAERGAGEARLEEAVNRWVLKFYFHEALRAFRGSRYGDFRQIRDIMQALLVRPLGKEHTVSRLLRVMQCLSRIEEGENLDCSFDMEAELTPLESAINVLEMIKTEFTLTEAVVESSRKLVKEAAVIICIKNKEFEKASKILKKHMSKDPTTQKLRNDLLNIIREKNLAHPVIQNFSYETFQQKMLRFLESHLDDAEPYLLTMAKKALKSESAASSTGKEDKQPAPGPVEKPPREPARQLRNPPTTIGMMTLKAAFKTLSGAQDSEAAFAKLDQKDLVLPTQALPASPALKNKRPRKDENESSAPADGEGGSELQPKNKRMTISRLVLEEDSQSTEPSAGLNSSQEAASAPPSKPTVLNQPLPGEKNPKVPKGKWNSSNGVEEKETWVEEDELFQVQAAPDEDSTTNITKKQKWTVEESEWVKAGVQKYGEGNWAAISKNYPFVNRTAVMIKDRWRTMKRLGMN
Settings: remark: other sources report otherwise

stoichiometry N: 2
B1: TRF2, Q15554 1-542 (natural protein)
chain: T1 chain
